Test [1] concerns the target T1, human PVRIG on FlpinCHO-PVRIG cells (human, UniProt Q6DKI7 41-326).
T1 construct: whole, on cells
T1 sequence (looked up): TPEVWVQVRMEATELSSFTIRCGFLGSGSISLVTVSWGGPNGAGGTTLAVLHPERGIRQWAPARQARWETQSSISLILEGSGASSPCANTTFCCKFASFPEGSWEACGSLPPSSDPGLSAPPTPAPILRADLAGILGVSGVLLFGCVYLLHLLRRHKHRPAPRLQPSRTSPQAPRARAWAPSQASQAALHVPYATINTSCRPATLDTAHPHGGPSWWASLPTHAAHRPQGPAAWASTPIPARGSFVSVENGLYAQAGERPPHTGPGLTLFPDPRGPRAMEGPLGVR
Kind of test: FACS, FlpinCHO-PVRIG cells. As to the method: The Ham's F12 (Gibico, 21127-022) complete medium containing 10% FBS was then added to terminate the digestion and acquire cell suspension. After counting with a cell counter (Beckman Coulter, Vi-CELL), an appropriate amount of cell suspension was centrifuged at 350×g to remove the supernatant, washed twice with PBS, stained with Zombie violet (Biolegend, 423114) and incubated at room temperature for 20 minutes. After incubation, the cells were added with staining buffer (2% FBS+PBS) to stop staining, centrifuged at 350×g to remove the supernatant, washed twice and resuspended with staining buffer to a density of 2×10⁶ cells/mL. The cells were plated into a 96-well plate (50 μL of cell suspension per well) for further use. The antibodies were diluted from the highest concentration of 46 nM (two-fold concentration) with staining buffer by 3.3-fold serial dilution. The diluted antibodies were added to the well containing 50 μL of cell suspension. The plate was placed on a microplate shaker at 400 rpm for 1 minute to fully mix the antibodies and cells, and then incubated at 4° C. for 30 minutes. After the incubation, the cells were washed twice with staining buffer (200 μL per well) and centrifuged at 350×g for 5 minutes to discard the supernatant. The PE goat anti-human IgG Fc antibody (ebioscience, 12-4998-82) was diluted 250 times with staining buffer, added into the washed wells (100 μL per well), mixed well, and stained at 4° C. for 30 minutes. After staining, the cells were washed twice with staining buffer, finally resuspended with 200 μL staining buffer and analyzed by flow cytometry (BD, Canto II). The stronger the signal, the stronger the ability of the antibodies binds to PVRIG. An antibody binding curve was drawn with concentration of antibodies as the abscissa and the corresponding Mean Fluorescence Intensity (MFI) as the ordinate. The AUC value of the curve was calculated by using a Four Parameter Logistic Fit (GraphPadPrism9). The stronger the AUC value, the stronger the ability of the antibodies binds to FlpinCHO-PVRIG and FlpinCHO-cyno PVRIG. […] The binding activity of the antibodies was normalized to the positive control COM701-hIgG1 and SRF813-hIgG1.

For test [2], the target named is T2, human PVRIG-his (AcroBiosystems, Cat NO. PVG-H52H4) (human, UniProt Q6DKI7 41-171, limits assumed).
T2 construct: also called human PVRIG protein
T2 sequence (looked up): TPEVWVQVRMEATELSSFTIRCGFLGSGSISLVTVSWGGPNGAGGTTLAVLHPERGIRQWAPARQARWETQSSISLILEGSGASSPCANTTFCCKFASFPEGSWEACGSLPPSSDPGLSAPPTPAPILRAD
Kind of test: ELISA, antigen coated. As to the method: (§1) The ELISA plate was pre-coated with 100 μL/well of 0.5 μg/mL human PVRIG-his (AcroBiosystems, Cat NO. PVG-H52H4) or cynomolgus monkey PVRIG (Novoprotein, Cat NO. C09B). The tested anti-PVRIG humanized antibodies were serially diluted (initial concentration 3 nM, 3-fold serial dilution), added into the plate (100 μL/well) and incubated with shaking at room temperature for 1.5 hours. […] A HRP substrate, TMB (Thermo, Cat NO. 34029) was added into wells after washing the plate again for color development. After adding a termination solution to terminate the reaction, the absorbance value was read by a microplate reader (MD i3×). An antibody binding curve was drawn with concentration of antibodies as the abscissa and the corresponding OD value as the ordinate. The EC50 value was calculated by using a Four Parameter Logistic Fit (GraphPadPrism9). The smaller the EC50 value, the stronger the ability of the antibodies binds to human or cynomolgus monkey PVRIG. The binding effect of the humanized antibodies was normalized to the corresponding parental antibodies. If the percentage value is higher than 100%, the binding effect of humanized antibodies is better than that of parental antibody.

The target in test [3] is T3, cynomolgus monkey PVRIG (Novoprotein, Cat NO. C09B) (cynomolgus monkey, UniProt A0A2K5WVV8 41-171).
T3 construct: also called cynomolgus monkey PVRIG protein
T3 sequence: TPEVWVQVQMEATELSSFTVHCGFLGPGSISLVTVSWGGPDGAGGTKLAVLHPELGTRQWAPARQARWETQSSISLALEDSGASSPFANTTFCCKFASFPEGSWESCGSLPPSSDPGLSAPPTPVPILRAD
Briefly: ELISA, antigen coated. As to the method: as §1
(In general: An ELISA detects its analyte on a solid surface through an enzyme-linked reagent.)

For test [4], the target named is T2, human PVRIG-his (AcroBiosystems, Cat …). Kind of test: competition ELISA, PVRIG-His coated, competitor human PVRL2-mFc. More on the design: AUC: unit not given here. As to the method:
(§2) The ELISA plate was pre-coated with 100 μL/well of 0.5 μg/mL human PVRIG-his protein (AcroBiosystems, Cat NO. PVG-H52H4). The tested anti-PVRIG antibodies were diluted from the highest concentration of 16 nM (two-fold concentration). The diluted antibodies were mixed with 18 ng/ml human PVRL2-mFc (AcroBiosystems, Cat NO. CD2-H5257) in equal volume, added into the plate (100 μL/well), and incubated with shaking at room temperature for 2.0 hours. […] A HRP substrate, TMB (Thermo, Cat NO. 34029) was added into wells after washing the plate again for color development. After adding a termination solution to terminate the reaction, the absorbance value was read by a microplate reader (MD i3×). An inhibiting curve was drawn with concentration of antibodies as the abscissa and the corresponding OD value as the ordinate. The IC50 value was calculated by using a Four Parameter Logistic Fit (GraphPadPrism9). The smaller the IC50 value, the stronger the ability of the antibodies inhibits the binding between PVRIG and PVRL2. The positive and negative controls are the same as in Example 8.
The methods refer to Example 11. The inhibiting activity of the humanized antibodies was normalized to the corresponding parental antibodies. If the percentage value is higher than 100%, the inhibiting effect of humanized antibodies is better than that of parental antibodies.

Test [5] shares this target. Briefly: SPR (BIAcore), antibody captured on Protein A chip, human PVRIG-His analyte. As to the method:
Biacore was used to detect the specific binding between anti-PVRIG antibody and human PVRIG protein. Protein A chip was used in the BIAcore assay. The time required for the chip to capture the diluted antibody and saturate the binding antigen to reach Rₘₐₓ (Maximum binding capacity, 50 RU) was measured by manual run. […] The affinity of antibody for antigen was measured by multi-cycle kinetics. In each cycle, the antibodies were injected prior to the injection of gradient concentraions of PVRIG proteins allowing the occurrence of antibody-antigen association and dissociation After each cycle, the Protein A chip was regenerated by Glycine, pH 1.5 (to remove the proteins on the chip). The affinity of antibody for antigen was calculated by BIAcore T200 analysis software.
The methods refer to Example 10.
On the technique in general: In SPR one partner is held on a chip, and binding of the other changes the refractive index at the surface.

Test [6] addresses T4, human PVRIG-his (AcroBiosystems, Cat NO. PVG-H52H4) (human, UniProt Q6DKI7 41-171, limits assumed).
T4 construct: treated as the same protein; also called human PVRIG-His protein; Human PVRIG-His, Acro C227P1-9ARF1-T4
T4 sequence (looked up): T2 sequence (looked up)
Briefly: competition ELISA on coated human PVRIG-his; blocked ligand human PVRL2-mFc. As to the method: as §2

Test [7] addresses T5, human PVRIG-mFc protein (Acro, PVG-H5253) (human, UniProt Q6DKI7 41-171, limits assumed).
T5 construct: bought reagent; also called PVRIG-ECD-mFc
T5 sequence (looked up): T2 sequence (looked up)
Kind of test: competition FACS; blocked: human PVRIG-mFc binding to CHO-K1-CD112 cells. As to the method: After incubation, the cells were added with staining buffer (2% FBS+PBS) to stop staining, centrifuged at 350×g to remove the supernatant, washed twice and resuspended with staining buffer to a density of 1×10⁶ cells/mL. The cells were plated into a 96-well plate (50 μL of cell suspension per well) for further use. A working solution of human PVRIG-mFc protein (Acro, PVG-H5253) prepared with staining buffer, 1 μg/mL (four-fold concentration), was added into a 96-well plate (50 μL PVRIG-mFc working solution per well). […] The diluted antibodies were added to the well containing 50 μL of PVRIG-mFc. The plate was placed on a microplate shaker at 400 rpm for 1 minute to fully mix the antibodies and PVRIG-mFc proteins, and then incubated at 4° C. for 30 minutes. After the incubation, the cell suspension prepared above (100 μL) was added into the wells, gently mixed with the pipette tip and incubated at 4° C. for 30 minutes. After the incubation, the cells were washed twice with staining buffer (200 μL per well) and centrifuged at 350×g for 5 minutes to discard the supernatant. The PE goat anti-mouse IgG Fc antibody (Biolegend, 405337) was diluted 250 times with staining buffer, added into the washed wells (100 μL per well), mixed well, and stained at 4° C. for 30 minutes. After staining, the cells were washed twice with staining buffer, finally resuspended with 200 μL staining buffer and analyzed by flow cytometry (BD, Canto II). The weaker the fluorescence signal, the stronger the ability of the antibodies blocks the binding of CHO-K1 human CD112 cells to the PVRIG-mFc protein. An antibody binding curve was drawn with concentration of antibodies as the abscissa and the corresponding Mean Fluorescence Intensity (MFI) as the ordinate. The IC50 value of the antibodies and the AUC value of the binding curve were calculated by using a Four Parameter Logistic Fit (GraphPadPrism9). The smaller the IC50 value and AUC value, the stronger the ability of the antibodies competes with CHO-K1-CD112 cells to bind to human PVRIG-mFc protein.

Data on eight molecules can be found in patent publication US20240343803A1 (SHANDONG SIMCERE BIOPHARMACEUTICAL, published 2024).

Residue numbers refer to the chain shown, from its start.

B1: PVRIG-A105-H3a (Fc fusion)
chain: EVQLVESGGGLVQPGGSLRLSCAASGRTFDRHTMTWFRQAPGKEREFVATASRIPGDTYYVDSVKGRFTISRDNAKNSVYLQMNSLRAEDTAVYYCAATSAYSSEVDSYEKGSWYDNWGQGTMVTVSS
notes: humanized variant of PVRIG-A105; also called A105.VH3a; not shown: constant part not restated for the humanized forms; parents are VHH-hinge-CH2-CH3 of human IgG1; detected by anti-human
A word on the EC50: it is the concentration needed to bring the measured effect to its halfway point. With B1, in test [1], the “AUC % to COM701-hIgG1” value was 15.9%, the “AUC % to SRF813-hIgG1” value came out at 23.9% and the “AUC % to parental Ab” value came to 12.8%. In test [2], the “% relative activity parental antibody/tested antibody” value is 0.99% and the EC50 amounted to 7.41 nM. In test [3], the “% relative activity parental antibody/tested antibody” value worked out at 2.53% and the response was half-maximal at 1.27 nM (EC50). In test [4], the “% relative activity (AUC) parental antibody/test antibody” value was found to be 47.2% and the AUC was 5.37.

B2: PVRIG-A105-H2 (Fc fusion)
chain: B1 chain with V79L, S103C, S108C
notes: humanized variant of PVRIG-A105; also called A105 VH2; not shown: constant part not restated for the humanized forms; parents are VHH-hinge-CH2-CH3 of human IgG1; detected by anti-human
Usually Kd stands for the constant that tells how readily two partners part at equilibrium. What is called koff is a measure of how fast the partners let go of each other. As a reminder, the kon is the second-order rate constant of association. The term IC50 denotes the concentration needed to halve the response being measured. Turning to B2, the response in test [2] was half-maximal at 0.0515 nM (EC50). Further, in test [3], the concentration giving a half-maximal response (EC50) amounted to 0.0343 nM. In test [5], this molecule registered a Kd of 0.693 nM, a koff of 0.00092 s⁻¹ and a kon of 1.33e+06 M⁻¹ s⁻¹. In test [4], the “% relative activity (IC50) parental antibody/test antibody” value was found to be 128% and the IC50 turned out to be 0.577 nM.

B3: PVRIG-A75 (VHH)
VHH: QLQLVESGGGLVQSGGSLRLSCAASGRTRSMYVMGWFRQAPGKEREFVGRIKWSGDTTYTSYADFVKGRFTLYGNQARNTVYLQMNSLKPEDTAVYSCAASKFPVSGVPEHYDYWGQGTQVTVSS
notes: tested as VHH-hinge-CH2-CH3 (human IgG1-Fc); not shown: human IgG1 hinge-CH2-CH3
With B3, the “IC50 (read off the curve)” value in test [6] was around 1 nM; in test [7], around 0.8 nM.

B4: PVRIG-A15 (VHH)
VHH: QVQLVESGGGLVQAGGSLRLSCVASGRTFSANTMAWFRQAPGKEREFVAYTRWTDDNTDYASYADFVKGRFTAFRDNTRNTMYLQMNRLRPEDTAVYYCAAATTRGTYYSAGDYNSWGQGTQVTVSS
notes: as for B3
Turning to B4, the “IC50 (read off the curve)” value in test [6] is around 2 nM; in test [7], around 1 nM.

B5: PVRIG-A30 (VHH)
VHH: QVQLVESGGGLVQPGGSLRLSCAASGRTDSMNVMGWFRRAPGKEREFVARIKWNGDTTYTAYADFLKGRFTLYGAVARNRVYLQMNSLQPEDTAVYYCAAGEVSGSSYSPDYGMHYWGKGTLVTVSS
notes: as for B3
For B5, the “IC50 (read off the curve)” value in test [6] was around 2 nM; in test [7], around 1 nM.

B6: PVRIG-A60 (VHH)
VHH: QVQLVESGGGLVQSGGSLRLSCAASGRTRSMYVMGWFRQAPGKEREFVGRIKWSGDTTYTSYADFVKGRFTLYGNQARNTVYLQMNSLKPEDAAVYYCNLRRLDGVNYWGKGTLVTVSS
notes: as for B3
Regarding B6, the “IC50 (read off the curve)” value in test [6] and in test [7] was around 1 nM throughout.

B7: PVRIG-A113 (VHH)
VHH: QLQLVESGGGLVQSGGSLRLSCAASGRTRSMYVMGWFRQAPGKEREFVGRIKWSGDTTYTSYADFVKGRFTLYGNQARNTVYLQMNSLKPEDTAVYYCAALPSDYDYRAASYGVDYWGKGTLVTVSS
notes: as for B3
Consider B7, for which the “IC50 (read off the curve)” value in test [6] and in test [7] was around 1 nM throughout.

B8: PVRIG-A35 (VHH)
VHH: EVQVVESGGGLVQSGGSLRLSCAASGRTRSMYVMGWFRQAPGKEREFVGRIKWSGDTTYTSYADFVKGRFTLYGNQARNTVYLQMNSLKPEDTAVYYCNGRSRFNVINAWGTGTLVTVAS
notes: as for B3
For B8, the “IC50 (read off the curve)” value in test [6] and in test [7] was around 1 nM in each case.
